Source: patent publication US12320801B2, “Methods to spatially profile protease activity in tissue and sections” (Massachusetts Institute of Technology, priority 2017, dated 2025)
Like-named read-outs stand apart in the source and are kept apart here. Each block holds one molecule with its values, some of them ahead of it. Non-standard residues stand in square brackets, D forms with d. Primed or numbered codes have the meaning given here. No end group written: not given here. *: point of attachment. 5FAM = O=C1OC2(c3ccc(O)cc3Oc3cc(O)ccc32)c2ccc(C(=O)*)cc21; CPQ2 = quencher on the Lys side chain; PEG2′ = polyethylene glycol linker

Key:
[1] = molecular target: T1, thrombin (Homo sapiens, UniProt P00734); assay: In vitro recombinant protease assay: cleavage of nanoparticle-presented FRET substrate by thrombin; type: biochemical; conditions: for cleavage velocity (V) by thrombin: 6 μM substrate
T1 construct: purchased Haematologic Technologies
Protocol: In some embodiments, surface presentation of peptide substrates allows tuning of specificity between on- and off-target proteolytic cleavage rates of the substrate (e.g., MMP9 substrate). The cleavage kinetics of an MMP9 peptide substrate (PLGVRGK; SEQ ID NO: 15), flanked by a fluorescence resonance energy transfer (FRET) pair, at varying distances from the nanoparticle core (FIG. 3A) were tested. For this substrate, the rate of cleavage by MMP9 increased with increasing presentation distance (tether length) for all the substrate concentrations tested (0.5, 1.0, 2.0, 4.0 and 6.0 μM); as an example, cleavage velocity (V) increased from 0.24 to 0.96 nM s^−1 at 6 μM (FIG. 3B). Unexpectedly, this phenomenon was not generalizable across enzymes. For example, cleavage rates by the serine protease, thrombin, decreased with increasing presentation distance when the same substrate was tested (e.g., V at 6 μM of substrate decreased from 0.29 to 0.01 nM s^−1; FIG. 3C). Nor was it generalizable across substrates. […] The presentation of the MMP9 substrate on the ABNs described in this example exploited the increased on-target and decreased off-target protease cleavage that occurs for long tether lengths.
Nanoparticles coupled with intramolecularly quenched peptide substrates were reacted with recombinant proteases to identify cleavage velocities. NPs were mixed with 1% (w/v) BSA (Sigma) and incubated with recombinant proteases (MMP-9, Enzo Life Sciences; thrombin, Haematologic Technologies) in a final volume of 50 μl in enzyme-specific buffers (MMP9 buffer: 50 mM Tris, 150 mM NaCl, 5 mM CaCl2), 1 μM ZnCl2, pH 7.5; thrombin: PBS) in a 384-well plate for time-lapse fluorimetry to measure dequenching at 37° C. (SpectroMax Gemini EM microplate reader). Michaelis-Menten constants were determined by assessing initial cleavage velocities at different substrate concentrations (Prism 5.0, GraphPad). The final MMP-9 concentration was 100 nM and the final thrombin concentration was 7 nM.

[2] = molecular target: T2, MMP9 (Homo sapiens, UniProt P14780); assay: In vitro recombinant protease assay: cleavage of nanoparticle-presented FRET substrate by MMP9; type: biochemical; conditions: 6 μM substrate
T2 construct: purchased Enzo Life Sciences
Protocol: In some embodiments, surface presentation of peptide substrates allows tuning of specificity between on- and off-target proteolytic cleavage rates of the substrate (e.g., MMP9 substrate). The cleavage kinetics of an MMP9 peptide substrate (PLGVRGK; SEQ ID NO: 15), flanked by a fluorescence resonance energy transfer (FRET) pair, at varying distances from the nanoparticle core (FIG. 3A) were tested. For this substrate, the rate of cleavage by MMP9 increased with increasing presentation distance (tether length) for all the substrate concentrations tested (0.5, 1.0, 2.0, 4.0 and 6.0 μM); as an example, cleavage velocity (V) increased from 0.24 to 0.96 nM s^−1 at 6 μM (FIG. 3B). Unexpectedly, this phenomenon was not generalizable across enzymes. For example, cleavage rates by the serine protease, thrombin, decreased with increasing presentation distance when the same substrate was tested (e.g., V at 6 μM of substrate decreased from 0.29 to 0.01 nM s^−1; FIG. 3C). Nor was it generalizable across substrates. […]
Nanoparticles coupled with intramolecularly quenched peptide substrates were reacted with recombinant proteases to identify cleavage velocities. […] (SpectroMax Gemini EM microplate reader). Michaelis-Menten constants were determined by assessing initial cleavage velocities at different substrate concentrations (Prism 5.0, GraphPad). […]

[3] = molecular target: mouse MMP9 (Mus musculus, UniProt P41245); assay: Cleavage of MMP9 substrate by mouse MMP9; type: biochemical
Excerpt: FIGS. 14A-14B show iRGD ABNz characterization.
Receptor expression on tumors varies by tumor type and patient. In this example, another ABN was produced using the tumor-penetrating ligand, iRGD (CRGDKGPDC; SEQ ID NO: 2). This peptide engages the same active-internalization pathway as LyP-1, but binds to αvβ3 or αvβ5 integrin heterodimers as its primary receptor, which are ectopically overexpressed in a large subset of cancers (FIG. 12A). The tumor-targeting peptides iRGD and LyP-1 were bound to ABNs and administered to an immunocompetent mouse model of colorectal liver metastasis (CLM), induced via an intrasplenic injection of p32-negative, integrin-positive and NRP-1-positive MC-26 cells (FIG. 12B-12C and FIGS. 13A-13C). MC-26 cells are derived from a mouse colorectal cancer line and secrete MMP9, which can be detected in the tumor nodules as well as in the tumor-adjacent liver, but not in non-tumor-bearing liver lobes (FIG. 12D). The stoichiometries for substrate conjugation on iRGD ABNs were similar to those used on the LyP-1 ABNs (FIG. 14A). […] This was consistent in the model of orthotopic ovarian cancer (FIG. 15D).

[4] = system: matrix-metalloprotease; assay: Cleavage of MMP9 substrate by OVCAR-8 conditioned media with and without MMP inhibitor; type: biochemical, human
[5] = system: OVCAR-8 tumor nodules; assay: Blood biomarker HE4 ELISA in orthotopic OVCAR-8 ovarian cancer model; type: in vivo, mouse
Protocol: The ability of ABNs to: (1) detect low-burden ovarian cancer and (2) outperform a clinical blood biomarker were tested. Detection by ABNs was compared to the blood biomarker HE4, as OVCAR-8 cells produce relatively high levels of this protein, on a par with four other human ovarian cancer cell lines (FIGS. 10B-10C). […] This threshold of sensitivity is critical, as clinically approved imaging modalities can typically only resolve individual tumor nodules greater than 5 mm in diameter. Additionally, it has been estimated that to decrease serous ovarian cancer mortality by 50% with an annual screen, a test would have to be sensitive to tumors of <5 mm. […] It was confirmed that the tumor nodule retrieval methodology described in this example accounted for greater than 80% of the tumor burden by measuring luminescence pre- and post-resection (FIGS. 11D-11G). The tumor burden remaining can be attributed to uncollected macroscopic and microscopic lesions.
To generate an orthotopic model of human ovarian cancer, three- to four-week-old female NCr nude mice were injected intraperitoneally with 2×10^6 OVCAR-8 cells expressing firefly luciferase. Tumor burden was measured via luminescence using an in vivo imaging system (IVIS, PerkinElmer). Each mouse was sacrificed and the tumors were retrieved from all organs in the peritoneal space. Tumors were collected on a glass slide and scanned on a LI-COR Odyssey with 169 μm resolution. Widths and lengths were measured with ImageJ and tumor volume was calculated as described above for subcutaneous tumors. The reported tumor volumes for each group are the average of ten mice. Before tumor induction, urine measurements were performed by injecting mice with 0.5 μM LyP1 ABNs. Approximately 200 μl of blood was collected and spiked with EDTA to a final concentration of 5 mM, and the blood cells were pelleted. Plasma was stored at −20° C. prior to HE4 quantification. HE4 levels were measured using the HE4 quantikine ELISA kit.

T2 sequence (P14780 94-707): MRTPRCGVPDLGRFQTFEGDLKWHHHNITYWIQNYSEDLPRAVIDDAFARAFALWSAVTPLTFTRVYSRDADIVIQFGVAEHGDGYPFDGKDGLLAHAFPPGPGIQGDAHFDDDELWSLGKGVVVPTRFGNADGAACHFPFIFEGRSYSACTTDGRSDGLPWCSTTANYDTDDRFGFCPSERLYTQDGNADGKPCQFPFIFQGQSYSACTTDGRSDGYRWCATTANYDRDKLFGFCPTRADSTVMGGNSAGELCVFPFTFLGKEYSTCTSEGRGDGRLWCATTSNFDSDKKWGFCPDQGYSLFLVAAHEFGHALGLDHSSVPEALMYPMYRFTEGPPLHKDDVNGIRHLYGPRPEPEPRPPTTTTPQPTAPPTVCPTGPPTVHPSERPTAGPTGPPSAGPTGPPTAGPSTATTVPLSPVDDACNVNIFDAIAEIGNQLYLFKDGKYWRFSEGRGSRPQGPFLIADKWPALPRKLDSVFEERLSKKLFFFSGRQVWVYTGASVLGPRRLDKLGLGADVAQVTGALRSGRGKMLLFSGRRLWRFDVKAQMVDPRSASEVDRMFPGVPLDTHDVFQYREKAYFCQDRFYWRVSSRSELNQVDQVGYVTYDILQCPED
Sequence of mouse MMP9 (P41245 108-730): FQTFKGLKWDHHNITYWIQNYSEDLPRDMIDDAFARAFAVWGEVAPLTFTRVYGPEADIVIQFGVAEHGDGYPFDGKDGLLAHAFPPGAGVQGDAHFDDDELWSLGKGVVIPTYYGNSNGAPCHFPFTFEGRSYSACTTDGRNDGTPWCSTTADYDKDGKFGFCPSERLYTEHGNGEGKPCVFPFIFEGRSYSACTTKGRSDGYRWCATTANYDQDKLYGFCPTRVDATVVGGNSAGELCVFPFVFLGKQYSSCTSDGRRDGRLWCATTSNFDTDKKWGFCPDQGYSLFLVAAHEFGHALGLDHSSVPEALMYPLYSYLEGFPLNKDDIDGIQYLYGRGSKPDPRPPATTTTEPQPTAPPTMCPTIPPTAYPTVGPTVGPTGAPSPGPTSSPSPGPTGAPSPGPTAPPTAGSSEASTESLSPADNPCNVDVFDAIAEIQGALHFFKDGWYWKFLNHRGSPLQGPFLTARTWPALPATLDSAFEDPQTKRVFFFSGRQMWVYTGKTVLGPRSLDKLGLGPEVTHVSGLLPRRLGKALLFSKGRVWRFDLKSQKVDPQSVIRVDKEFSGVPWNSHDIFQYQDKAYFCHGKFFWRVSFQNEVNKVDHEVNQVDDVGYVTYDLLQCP

Molecule: 5-FAM-GGfPRSGGGK(CPQ2)-PEG2-C [thrombin-selective substrate]
- optimal presentation length for thrombin cleavage ([1]; varying linker lengths on nanoparticle surface): optimally presented at an intermediate length

- cleavage velocity (V) by MMP9 ([2]; longest presentation distance (tether length)): 0.96 nM/s
- cleavage velocity (V) by MMP9 ([2]; shortest presentation distance (tether length)): 0.24 nM/s
- cleavage velocity (V) by thrombin ([1]; longest presentation distance): 0.01 nM/s
- cleavage velocity (V) by thrombin ([1]; shortest presentation distance): 0.29 nM/s
- cleavage by mouse MMP9 [3]: readily able to cleave
Molecule: 5-FAM-GGPLGVRGKK(CPQ2)-PEG2-C (5FAM-GGPLGVRGKK(CPQ2)[PEG2′]C) [MMP9 peptide substrate, MMP9 peptide substrate (PLGVRGK) flanked by a FRET pair, presented on nanoparticle surface at varying PEG tether lengths]

Molecule: CNC(=O)[C@@H](NC(=O)[C@H](CC(C)C)[C@H](O)C(=O)NO)C(C)(C)C [marimistat]
- inhibition of cleavage of MMP9 substrate by OVCAR-8 conditioned media [4]: can be inhibited
- inhibition of cleavage of MMP9 substrate by OVCAR-8 conditioned media ([4]; listed as Marimistat): can inhibit a significant portion of the cleavage

B1: HE4: human epididymis protein, clinical blood biomarker used as comparator diagnostic, measured by ELISA (protein, UniProt Q14508 31-124, looked up)
WAP four-disulfide core …: EKTGVCPELQADQNCTQECVSDSECADNLKCCSAGCATFCSLPNDKEGSCPQVNINFPQLGLCRDQCQVDSQCPGQMKCCRNGCGKVSCVTPNF
- limit of detection (tumor volume) ([5]; 3 weeks): 88 mm^3
- ROC-AUC ([5]; three weeks): 0.93
- ROC-AUC ([5]; two weeks): 0.51
